Source: PMC7589778

Target: Human mitochondrial LysRS with a C-terminal HA-tag (human) (UniProt Q15046)
Test: AlphaScreen or HTRF

Substance | Kd [nM]
Integrase from HIV-2_TRA with a C-terminal His-tag (enzyme) | 3.5
Integrase from HIV-2_ALL with a C-terminal His-tag (enzyme) | 2.4
